{
  "source": "paper PMC3289641",
  "target": "GST-fused core106 (HCV core, residues 1-106) (hepatitis C virus (genotype not stated))",
  "assay": "AlphaScreen or HTRF; GST-core106 and Flag-core106 at 150 nM each; glutathione donor beads and anti-Flag acceptor beads 20 ug/ml; room temperature; protein buffer 100 mM HEPES pH 7.5, 1 mM EDTA, 5 mM DTT, 0.1% CHAPS, 10% glycerol; untagged core106 added as reference inhibitor",
  "data": [
    {"substance": "HCV core106 (1-106 residues), untagged core106 domain (domain or fragment)", "values": [
      {"measurement": "percent inhibition of core dimerization", "result": 91, "unit": "%"}
    ]}
  ]
}
